Holding throughout (conditions): both partners purified
The target of test [1] is T1, REPΔC‐His, truncated form of REP lacking 30 C‐terminal amino acids (Arabidopsis thaliana, UniProt Q8LLD4 1-533).
T1 construct: Rab escort protein (REP) of Arabidopsis thaliana lacking 30 C‐terminal amino acids; cloned from pGWB551‐REP with primers BP‐rep‐F and BP‐rep‐R into pET301/CT‐DEST; Gateway cloning (pDONR201, pET301/CT‐DEST) may add linker residues between REP and the His tag; also called truncated mutant; truncated REP version; source: E. coli BL21(DE3)pLysS, purified (Ni‐NTA agarose)
T1 sequence (looked up): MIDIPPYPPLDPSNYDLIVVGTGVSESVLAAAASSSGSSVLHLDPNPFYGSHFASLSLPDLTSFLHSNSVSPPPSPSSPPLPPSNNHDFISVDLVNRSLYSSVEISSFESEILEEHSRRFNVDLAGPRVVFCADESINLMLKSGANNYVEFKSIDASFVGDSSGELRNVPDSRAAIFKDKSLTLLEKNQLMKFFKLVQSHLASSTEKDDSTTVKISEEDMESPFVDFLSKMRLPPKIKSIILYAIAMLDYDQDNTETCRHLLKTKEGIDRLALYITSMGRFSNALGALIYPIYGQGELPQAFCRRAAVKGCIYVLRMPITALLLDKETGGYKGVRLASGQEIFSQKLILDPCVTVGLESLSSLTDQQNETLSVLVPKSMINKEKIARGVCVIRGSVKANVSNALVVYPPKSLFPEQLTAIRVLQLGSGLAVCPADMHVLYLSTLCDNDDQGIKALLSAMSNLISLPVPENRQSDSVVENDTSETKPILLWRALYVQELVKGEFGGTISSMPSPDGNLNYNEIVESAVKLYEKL
The experiment in a line: SEC; purified proteins diluted to 65 nM in 200 μl Tris 20 mM pH 7.5, 100 mM NaCl, 10 mM MgCl2, 1 mM DTT, 1.5 mM GDP, incubated 4 h at room temperature; Superdex 75 10/300 GL; fractions resolved by SDS‐PAGE. (In general: SEC sorts molecules by how far they enter the pores of the column.)

The target in test [2] is T2, Rab escort protein (REP), recombinant REP‐His (Arabidopsis thaliana, UniProt Q8LLD4 1-563).
T2 construct: Rab escort protein (REP) of Arabidopsis thaliana, wild type; Plasmid was a gift (Dr. Michal Hala); HDX‐MS peptides are reported from region 1–14 to beyond amino acid 534, so the whole protein was probably present; also called WT REP; AtREP; source: E. coli BL21(DE3)pLysS, purified (Ni‐NTA agarose, HiTrapQ, Superdex 75)
T2 sequence (looked up): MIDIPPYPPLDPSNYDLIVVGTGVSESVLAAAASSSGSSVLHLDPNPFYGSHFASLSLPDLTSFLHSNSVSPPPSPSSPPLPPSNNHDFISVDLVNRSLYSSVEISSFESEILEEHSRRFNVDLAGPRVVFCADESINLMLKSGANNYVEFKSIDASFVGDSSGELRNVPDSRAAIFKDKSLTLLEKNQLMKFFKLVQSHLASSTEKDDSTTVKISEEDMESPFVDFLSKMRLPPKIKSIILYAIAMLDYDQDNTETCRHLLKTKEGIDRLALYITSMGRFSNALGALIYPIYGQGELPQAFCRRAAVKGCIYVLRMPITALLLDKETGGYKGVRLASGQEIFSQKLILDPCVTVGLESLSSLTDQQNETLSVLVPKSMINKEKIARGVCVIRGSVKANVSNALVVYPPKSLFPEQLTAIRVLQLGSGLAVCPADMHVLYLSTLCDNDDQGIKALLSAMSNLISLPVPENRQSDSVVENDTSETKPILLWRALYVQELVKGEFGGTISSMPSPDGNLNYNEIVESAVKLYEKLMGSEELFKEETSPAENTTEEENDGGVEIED
The description is as above.

Test [3] has as its target T2, Rab escort protein (REP), recombinant …. The experiment in a line: HDX-MS; complexes of REP‐His with GST‐Rab from SEC against each protein alone (apo); 20 mM Tris‐DCl, 100 mM NaCl, 5 mM MgCl2, 1 mM GDP pH 7.5 in D2O; 10 sec, 1 min, 60 min; pepsin digestion; triplicate.

Four molecules from paper PMC9293207, “Impact of C‐terminal truncations in the Arabidopsis Rab escort protein (REP) on REP–Rab interaction and plant fertility” (The Plant Journal, 2021) can be followed below.

B1: GST‐Rab‐E1d (natural protein)
chain: not shown
notes: Rab‐E1d of Arabidopsis thaliana, cloned from Col‐0 leaf cDNA into pGEX4T1 cut with SmaI; unprenylated; Used in the presence of GDP; source: E. coli BL21(DE3)pLysS, purified (Glutathione‐Sepharose 4B, Superdex 75)
B1: the binding result in test [1] and in test [2] was “binds” throughout.

B2: GST‐Rab‐F2b (natural protein, Arabidopsis thaliana, UniProt Q9SN68 1-200, looked up)
chain: MAAAGNKSINAKLVLLGDVGAGKSSLVLRFVKDQFVEFQESTIGAAFFSQTLAVNDATVKFEIWDTAGQERYHSLAPMYYRGAAAAIIVFDVTNQASFERAKKWVQELQAQGNPNMVMALAGNKSDLLDARKVTAEDAQTYAQENGLFFMETSAKTATNVKEIFYEIARRLPRVQPTENPTGMVLPDRAMDRAVSSSCCA
notes: Rab‐F2b of Arabidopsis thaliana, cloned from Col‐0 leaf cDNA into pGEX4T1 cut with SmaI; unprenylated; Used in the presence of GDP; source: E. coli BL21(DE3)pLysS, purified (Glutathione‐Sepharose 4B, Superdex 75)
Consider B2, for which the binding result in test [3] is listed as “binds”.

B3: GST‐Rab‐D1 (natural protein)
chain: not shown
notes: Rab‐D1 of Arabidopsis thaliana, cloned from Col‐0 leaf cDNA into pGEX4T1 cut with SmaI; unprenylated; Used in the presence of GDP; source: E. coli BL21(DE3)pLysS, purified (Glutathione‐Sepharose 4B, Superdex 75)
Turning to B3, the binding result in test [1] and in test [3] was “binds” in each case.

B4: Rab‐E1d cleaved from its GST tag (natural protein)
chain: not shown
notes: Rab‐E1d of Arabidopsis thaliana, from GST‐Rab‐E1d (pGEX4T1, SmaI) after thrombin cleavage; A few vector‐derived residues probably remain at the end after thrombin cleavage; also called E1d no tag; untagged Rab‐E1d
On to B4, for which the binding result in test [2] was “binds”.
